14 molecules from US20070243589A1 (Pfizer, published 2007) can be followed below.

Changes are numbered by the printed parent chain.

The chains are these.
T1: human IL-22 (human, UniProt Q9GZX6 34-179)
T1 sequence: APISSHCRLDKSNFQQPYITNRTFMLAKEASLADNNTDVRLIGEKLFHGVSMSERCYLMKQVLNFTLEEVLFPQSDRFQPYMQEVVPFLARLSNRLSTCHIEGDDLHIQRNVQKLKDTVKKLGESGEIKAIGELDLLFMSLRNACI

T2: biotinylated IL-22 with an N-terminal His/FLAG tag (bio.IL-22H/F) (human, UniProt Q9GZX6 34-179, biotinylated (site not stated))
T2 construct: not shown: N-terminal His/FLAG tag
T2 sequence: T1 sequence

B1: 368D04 scFv (non-germlined) (scFv)
scFv: EVQLVESGGGVVRPGGSLRLSCAASGFTFDDYGMNWVRQAPGKGLEWVSGVNWNGGTRDYAASVKGRFTISRDNAKNSLYLQMNSLRAEDTALYYCARGWYSGAAWNMGYWGRGTLVTVSSGGGGSGGGGSGGSGGGSGGGGGGSGGGGSAQAVLTQPSSVSGSPGQSITISCTGASGDVGAYNFVSWYQQHPGKTPKLIIYDVNKRPSGVSNRFSGSKSGNTASLTISGLQAEDESDYYCASLVSDFSVVFGGGTKVTVLGAAAH
notes: Optimized clone derived from GIL60
B2: 087B03 scFv (non-germlined) (scFv)
scFv: EVQLVESGGGVVRPGGSLRLSCAASGFTFDDYGMNWVRQAPGKGLEWVSGVNWNGGTRDYAASVKGRFTISRDNAKNSLYLQMNSLRAEDTALYYCARGWYSGAAWNMGYWGRGTLVTVSSGGGGSGGGGSGGGGSAQAVLTQPSSVSGSPGQSITISCTGASGDVGAYNFVSWYQQHPGKTPKLIIYDVNKRPSGVSNRFSGSKSSNTASLTISGLQAEDESDYYCSSYTSTFSVVFGGGTKVTVLGAAAH
notes: as for B1
B3: 354A08 scFv (non-germlined) (scFv)
scFv: QVQLVQSGAEKKPGASVKVSCKASGYTFTDYYMHWVRQAPGQGLEWVGWINPYTGGAFYAQKFRGRVTMTRDTSINTAYMELSRLGSDDTAVYYCAREPERFGDSTGQVWGRGTMVTVSSGGGGSGGGGSGGSRSAQAVLTQPSSVSGAPRQRVTISCTGSSSNIGAGYGVHWYQQLPGTAPKLLIYGNSNRPSGVPDRFSGSKSGTSASLAITGLQAEDEADYYCYHWDKEQSGYVFGTGTQLTVLSA
notes: Optimized clone derived from GIL92
B4: 376B10 scFv (non-germlined) (scFv)
scFv: EVQLVQSGAEVKKPGASVKVSCQASGYTFSDYYIHWVRQTPGQGFEWMGWVNPDTGGTRYAQKFQGWVTMTRDMSNTTAYMELPGLRDDDTAVYYCARDLTGYDQYTAWGQGTLVTVSSGGGGSGGGGSGGGGSAQSVLTQPPSVSVAPGKTATITCGGNNFRNKRVHWYQQRPGQAPVLVIYYDSDRPSGIPERFSGSRSGNTATLTISRVEAGDEADFYCSTFDPFTDRPLFGGGTKLTVLGAAAH
notes: Optimized clone derived from GIL68
B5: 355E04 scFv (non-germlined) (scFv)
scFv: QVQLVQSGAEVKKPGASVKVSCKASGYTFTHYYMHWVRQAPGQGLEWVGWINPYTGGAFYAQKFQGRVTMTRDTSINTAYMELSRLGSDDTAVYYCAREPEKFDSPNAEIWGRGTMVTISSEGGGSGGGGSGGSGSAQAVLTQPSSVSGAPGQRVTISCTGSSSNIGAGYGVHWYQQLPGTAPKLLIYGNSNRPSGVPDRFSGSKSGTSASLAITGLQAEDEADYYCQSYDSSLSGYVFGTGTQLTVLSA
notes: as for B3
B6: 355B06 scFv (non-germlined) (scFv)
scFv: EVQLVQSGAEVKKPGASVKVSCQASGYTFTDYYMHWVRQAPGQGLEWVGWINPYTGSAFYAQKFRGRATMTRNTSINTAYMELSRLGSDDTAVYYCAREPEKFGESSGQLWGRGTMVTISSGGGGSGGGGSGGSGSAQAVLTQPSSVSGAPGQRVTISCTGSSSNIGPGYGVHWYQQLPGTAPKLLIYGDSNRPSGVPDRFSGSKSGTSASLAITGLQAEDEADYYCQSYDSGLSGYVFGTGTQLTVLSA
notes: as for B3
B7: 166G05 scFv (non-germlined) (scFv)
scFv: EVQLVQSGAEVKKPGASVKVSCQASGYTFSDYYIHWVRQTPGQGFEWMGWVNPDTGGTRYAQKFQGWVTMTRDMSNTTAYMELPRLRDDDTAVYYCARDLTGFDPFDIWGQGTLVTVSSGGGGSGGGGSGGGGSAQSVLTQPPSVSVAPGKTATITCGGNNFRNKRVHWYQQRPGQAPVLVIYYDSDRPSGIPERFSGSRSGNTATLTISRVEAGDEADFYCQVWDFLTDSGSFGGGTKLTVLGAAAH
notes: as for B4
B8: 062G05 scFv (non-germlined) (scFv)
scFv: QVQLVESGAEVKKPGASVKVSCKASGYTFTSYGISWVRQAPGQGLEWMGWISAYTGNTNYAQKFQGRVTMTTDTSTSTAYMELRSLRSDDTAVYYCARDRGYYDAFDIWGQGTLVTVSSGGGGSGGGGSGGGGSDIQMTQSPSTLSASIGDRVTITCRASEGIYHWLAWYQQKPGKAPKLLIYKASSLASGAPSRFSGSGFGTDFTLTISSLQPDDFATYYCQQMGEWKAAFGGGTKLEIKRAAAH
notes: Optimized clone derived from GIL16
B9: 062A09 scFv (non-germlined) (scFv)
scFv: B8 scFv with I51V, S85G, F106Y, W228Y, K229N, A231T, F232I
notes: as for B8
B10: 062G05 IgG (non-germlined) (antibody, V domains shown)
VH: QVQLVESGAEVKKPGASVKVSCKASGYTFTSYGISWVRQAPGQGLEWMGWISAYTGNTNYAQKFQGRVTMTTDTSTSTAYMELRSLRSDDTAVYYCARDRGYYDAFDIWGQGTLVTVSS
VL: DIQMTQSPSTLSASIGDRVTITCRASEGIYHWLAWYQQKPGKAPKLLIYKASSLASGAPSRFSGSGFGTDFTLTISSLQPDDFATYYCQQMGEWKAAFGGGTKLEIKR
notes: IgG
B11: 367D04 scFv (non-germlined) (scFv)
scFv: EVQLVESGGGVVRPGGSLRLSCAASGFTFDDYGMNWVRQAPGKGLEWVSGVNWNGGTRDYAASVKGRFTISRDNAKNSLYLQMNSLRAEDTALYYCARGWYSGSPWSLGHWGRGTLVTVSSGGGGSGGGGSGGSGGGSGGSGGGSSGGGSGGGGSAQAVLTQPSSVSGSPGQSVTISCTGASGDVGAYNFVSWYQQHPGKTPKLIIYDVNKRPSGVSNRFSGSKSGNTASLTISRLQAEDESDYYCSSYTSRYTTEFGGGTKVTVLGAAAH
notes: as for B1
B12: 356A11 scFv (non-germlined) (scFv)
scFv: QVQLVQSGAEVKKPGASVKVSCKASGYTFTNYYMHWVRQAPGQGLEWVGWINPYTGSAFYAQKFRGRVTMTRDTSINTAYMELSRLGSDDTAVYYCAREPEKFDSDDSDVWGRGTMVTVSGGGGSSGGGGSGGSGSAQAVLTPPSVSGAPGQRVTISCTGSSSNIGAGYGVHWYQQLPGTAPKLIIYGDSSRPSGVPDRFSGSKSGTSASLAITGLQAEDEADYYCQSYDNSLSGYVFGTGTQLTVLSA
notes: as for B3
B13: 097D09 scFv (non-germlined) (scFv)
scFv: EVQLVESGGGLVTPGGSLRLSCAASGFTFSDYYMSWVRQAPGRGLEWVSAISGSGGSTYYADSVKGRITISRDNAKNSLYLQMSSLRSEDTAVYYCARGLWVWDPLDYWGRGTLVTVSSGGGGSGGGGSGGGGSDIQMTQSPSTLSASIGDRVTITCRASEGIYHWLAWYQQKPGKAPKLLIYKASSLASGAPSRFSGSGFGTDFTLTISSLQPDDFATYYCQQYSEFAWTFGGGTKLEIKRAAAH
notes: Optimized clone derived from GIL01
B14: 375G06 scFv (non-germlined) (scFv)
scFv: EVQLVQSGAEVKKPGASVKVSCQASGYTFSDYYIHWVRQTPGQGFEWMGWVNPDTGGTRYAQKFQGWVTMTRDMSNTTAYMELPRLRDDDTAVYYCARDLTGYDYYDRWGQGTLVTVSSGGGGSGGGGSGGGGGGSGGGGGGSGGGGSAQSVLTQPPSMSVAPGKTATITCGGNNFRNKRVHWYQQRPGQAPVLVIYYDSDRPSGIPERFSGSRSGNTATLTISRVEAGDEADFYCQVWDFLADEAMFGGGTKLTVLGAAAH
notes: as for B4

By IC50 is commonly meant the concentration that inhibits the measured activity by half.

T3 sequence (P02769 25-607 limits assumed): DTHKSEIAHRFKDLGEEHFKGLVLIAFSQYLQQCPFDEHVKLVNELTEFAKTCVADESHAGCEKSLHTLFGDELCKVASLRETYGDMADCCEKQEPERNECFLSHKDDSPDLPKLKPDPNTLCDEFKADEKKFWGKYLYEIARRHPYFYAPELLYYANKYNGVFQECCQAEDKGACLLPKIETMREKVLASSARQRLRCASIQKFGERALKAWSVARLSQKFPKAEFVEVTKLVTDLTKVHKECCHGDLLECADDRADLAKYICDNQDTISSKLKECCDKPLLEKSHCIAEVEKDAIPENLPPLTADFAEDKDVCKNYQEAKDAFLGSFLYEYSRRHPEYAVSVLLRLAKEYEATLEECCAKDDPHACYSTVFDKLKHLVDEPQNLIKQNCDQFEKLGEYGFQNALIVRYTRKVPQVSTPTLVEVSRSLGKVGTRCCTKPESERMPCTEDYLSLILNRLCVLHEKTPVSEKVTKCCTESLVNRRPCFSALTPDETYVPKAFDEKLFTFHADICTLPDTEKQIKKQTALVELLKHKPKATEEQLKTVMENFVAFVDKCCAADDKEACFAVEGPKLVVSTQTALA

The target of one assay is T1, human IL-22. Nature of the assay: cell-based or functional assay.
Regarding B1, the “IC50 of scFv in BaF3-IL-22 proliferation assay” value (“IC50 of scFv” for short) was 186 pM.

Consider B2, for which the “IC50 of scFv” value was found to be 212 pM.

Regarding B3, the “IC50 of scFv” value came to 219 pM.

With B4, the “IC50 of scFv” value came to 104 pM.

Turning to B5, the “IC50 of scFv” value came to 192 pM.

For the molecule B6, the “IC50 of scFv” value is 183 pM.

B7: the “IC50 of scFv” value was 204 pM.

With B8, the “IC50 of scFv” value is 182 pM.

Turning to B9, the “IC50 of scFv” value turned out to be 267 pM.

As to B10, the “IC50 of IgG in BaF3-IL-22 proliferation assay” value came out at 112 pM.

In the case of B11, the “IC50 of scFv” value stood at 160 pM.

Regarding B12, the “IC50 of scFv” value is 124 pM.

With B13, the “IC50 of scFv” value is 298 pM.

Regarding B14, the “IC50 of scFv” value is 118 pM.

In another assay the target is T2, biotinylated IL-22 with an N-terminal …. Nature of the assay: DELFIA competition assay: scFv titrated against bio.IL-22H/F binding to the captured IL-22 receptor complex. Here is the method:
Microtiter plates were coated with an IL-22 receptor complex antibody (1 μg/ml in PBS), and incubated for 1.5 hours at room temperature. Plates were washed three times in PBST, and blocked for 1 hour at room temperature with 2% MPBS. After a further 3 washes, diluted cell conditioned medium containing an IL-22 receptor complex was added and incubated overnight at 4° C. Crude scFv supernatants were prepared as described above. The following day, 25 μl of diluted scFv sample and 25 μl of bio.IL-22H/F (6 ng/ml) were added to the washed plates, and incubated for 1.5 hours at room temperature. Plates were washed 3 times in PBST, then binding of bio.IL-22H/F to the IL-22 receptor complex was detected with Europium-Streptavidin and the DELFIA® reagent kit (PerkinElmer). Time Resolved Fluorescence was measured using a Victor 2™ Plate Reader (Perkin Elmer).
Purified scFv from positive clones identified from the screening were tested in the DELFIA® IL-22 receptor complex competition assay as described above. A titration of scFv concentrations was used in order to establish the clone potency as measured by IC₅₀ values in the assay. Fourteen optimized clones were designated 097D09, 062A09, 062G05, 087B03, 367D04, 368D04, 166B06, 166G05, 375G06, 376B10, 354A08, 355B06, 355E04, and 356A11.
Take B1: the IC50 was 0.32 nM.

On to B2, for which the IC50 was found to be 0.12 nM.

B3 registered a half-maximal inhibitory concentration (IC50) of 0.16 nM.

In the case of B4, the IC50 was 0.79 nM.

In the case of B5, the IC50 was 0.41 nM.

B6 came in with an IC50 of 0.18 nM.

Turning to B7, the IC50 came out at 0.19 nM.

B8 returned an IC50 of 0.1 nM.

B9 registered an IC50 of 0.13 nM.

B11 yielded an IC50 of 0.33 nM. Compared with the last molecule, the IC50 is about 2.5-fold higher.

In turn, B12 returned an IC50 of 0.55 nM.

For the molecule B13, the concentration for half-maximal inhibition (IC50) came out at 0.39 nM.

In the case of B14, the IC50 stood at 0.44 nM.

A further assay concerns the target T3, BSA (bovine, UniProt P02769).
T3 construct: background wells labelled BSA; also called bovine serum albumin
Nature of the assay: ELISA: wells labelled BSA, IgG at 1 µg/ml, HRP anti-human IgG, A450. Here is the method: Cross species reactivity of germlined and non-germlined optimized antibodies were determined as follows: ELISA plates (Costar, Cat. #3590) were coated overnight with 1 μg/ml of rat, mouse, or human IL-22 or human IL-26 in PBS buffer. Plates were washed with PBST buffer (0.05% Tween20 in PBS) 3 times, then blocked with 1% BSA (Sigma A8918)/PBST for 1 hr at RT. Antibodies were added at 1 μg/ml, incubated 1 hr at 25° C. […] The plates were incubated for 1 hour at 25° C., then washed with PBST, and developed with TMB (KPL, Cat. #50-76-04). Reaction was stopped with 0.18 M H₂S0₄. Plates were read at OD 450 nm.
For orientation: An ELISA detects its analyte on a solid surface through an enzyme-linked reagent.
As for B10, the binding result is listed as “no binding (tested: 1 µg/ml (single concentration))”.
